This note sets out measurements from patent publication US20220243196, “[…] METHOD OF APTAMER AND IMMUNOASSAY USING THE APTAMER” (SB BIOSCIENCE CO., LTD., published 2022).

One series addresses Ebola NP (Ebola virus, UniProt P18272 P18272:1-739). Nature of the series: ELONA.
Another series concerns the target HIV-1 p24 (Human immunodeficiency virus 1, UniProt P04591 P04591:133-363). Nature of the series: ELONA; antibody-antigen-aptamer sandwich with RPA readout.
In a further series the target is SARS-CoV-2 NP (SARS-CoV-2, UniProt P0DTC9 P0DTC9:1-419). Put plainly: ELONA.

B1: Ebola NP aptamer (ssDNA)
DNA: GATGTGAGTGACGTGGATCGAGCGGATGTGAAGGCTGAAAGTGGCTTTGGGCGGTCGTAAGTGTCACAGAGCATGCAACAAGACC
For the molecule B1, in the series with Ebola NP, the binding result is on record as “binds”.

B2: HIV-1 p24 aptamer (ssDNA)
DNA: AGATACTGCCATTCATTGCATCGAGCACGCGACTGATGAGGATGGTCTAGTAGCTGGGGTCGAGTACTAAGCTATGTGTCGA
For the molecule B2, the binding result with HIV-1 p24 is “binds”.

B3: SARS-CoV-2 NP aptamer (ssDNA)
DNA: ATCCAGAGTGACGCAGCAAACCCAAGCAAACTACCTCTATACCCTTCGACCTTCATCATGGACACGGTGGCTTAGT
Regarding B3, the binding result with SARS-CoV-2 NP is reported as “binds”.
